The values that follow come from the RNAGym collection of RNA variant scans (doi:10.1073/pnas.2313332121).

B1: TPR 5TU (parent)
chain: GGAUCUUCUCGAUCUAACAAAAAAGACAAAUCUGCCACAAAGCUUGAGAGCAUCUUCGGAUGCAGAGGCGGCAGCCUUCGGUGGCGCGAUAGCGCCAACGUUCUCAACUAUGACACGCAAAACGCGUGCUCCGUUGAAUGGAGUUUAUCAUG

Variants at the floor of the assay were thinned out.

The variants in this series derive from B1. Briefly: polymerase ribozyme fitness, log enrichment relative to wild type (log ratio); higher = more active; in vitro selection for triplet polymerase activity. The method, boiled down: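 Frozen incubation at −7 °C formed the core of a single, triplicate in vitro selection round applied to PCR-built, transcribed mutant libraries of each subunit of a heterodimeric triplet polymerase ribozyme. Extended constructs were gel-excised, captured with streptavidin beads and amplified by RT-PCR, and input and output libraries were Illumina-sequenced with a filter of ≥10 input reads and ≥1 read per output. Fitness is the logarithm of genotype enrichment relative to wild-type enrichment, with inverse-variance-weighted replicate averaging, and the logarithm is base 2.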
As to GGAUCUUCUCGAUCUAACAAAAAAGACAAAUCUGCCACAAAGCUUGAGAGCUUCUUCUGAUGCAGAGGCGGCAGCCUUCGGUGGCGCGAUAGCGUCAACGUUCUCAACUAUGACACGCAAAACGCGUGCUCCGUUGAAUGGAGUUUAUCAUG, the “polymerase ribozyme fitness (log ratio)” value is -1.52.

For GGAUCUUCUCGAUCUAACAAAAAAGACAAAUCUGCCACAAAGCUUGAGAGCUUCUUCGGAUGCAGAGGCGGCAGCCUUCGGUGACGCGAUAGCGCCAACGUUCUCAACUAUGACACCCAAAACGCGUGCUCCGUUGAAUGGAGUUUAUCAUG, the “polymerase ribozyme fitness (log ratio)” value was -0.726.

Regarding GGAUCUUCUCGAUCUAACAAAAAAGACAAAUCUGCCACAAAGCUUGAGAGCUUCUUCGGAUGCAGAGGCGGCAGCCUUCGGUGGCCCGAUCGCGCCAACGUUCUCAACUAUGACACGCAAAACGCGUGCUCCGUUGAACGGAGUUUAUCAUG, the “polymerase ribozyme fitness (log ratio)” value was no more than -4.2.

Consider GGAUCUUCUCGAUCUAACAAAAAAGACAAAUCUGCCACAAAGCUUGAGAGCUUCUUCGGAUGCAGAGGCGGCAGCCUUCGGUGGCGCGAUAGCGCCAACGUUCUCAACUAUGACACGCAAAACGCGUGCUCCGUUGAAUCGAGUUUAUCAUG, for which the “polymerase ribozyme fitness (log ratio)” value was no more than -4.2.

Consider GGAUCUUCUCGAUCUAACAAAAAAGACAAAUCUGCCACAAAGCUUGAGAGCUUCUUCGGAUGCAGAGGCGGCAGCCUUCGGUGGUGCGAUAGCGCAAACGUUCUCAACUAUGACAUGCAAAACGCGUGCUCCGUUGAAUGGAGUUUAUCAUG, for which the “polymerase ribozyme fitness (log ratio)” value was -2.69.

As to GGAUCUUCUCGAUCUAACAAAAAAGACAAAUCUGCCACAAAGCUUGAGAGCUUCUUCGGAUGCAGAGGCGGCAGCCUUCGGUGGCGUGAUAGCGCCAACGUUCUCAACUAUGACACGCAAAACGCGUGCUCCGUUGAAUGGAGUUUAUCAUG, the “polymerase ribozyme fitness (log ratio)” value is -2.81.

GGAUCUUCUCGAUCUAACAAAAAAGACAAAUCUGCCACAAAGCUUGAGAGCUUCUUCGAAUGCAGAGGCGGCAGCCUUCGGGGGCGCGAUAGCGCCAACGUUCUCAACUAUGACACGCAAAACGCGUGCUCCGUUGAAUGGAGUACAUCAUG: the “polymerase ribozyme fitness (log ratio)” value is -0.208.

GGAUCUUCUCGAUCUAACAAAAAAGACAAAUCUGCCACAAAGCUUGAGAGCUACUUCGGAUGCAGAGGCGGCAGCCUUCGGUGGCGCGAUAGCGCUAACGUUCUCAACUAUGACACGCCAAACGCGUGCUCCGUUGAAUGGAGUUUAUCAUG: the “polymerase ribozyme fitness (log ratio)” value was -2.05.

GGAUCUUCUCGAUCUAACAAAAAAGACAAAUCUGCCACAAAGCUUGAGAGCUUCUUCGGAUGCAGAGGCGCCAGCCUUCGGUGGCGCGAUAACGCGAACGUUCUCAACUAUGACACGCAAAACGCGUGCUCCGUUGAAUGGAGUUUAUCAUG: the “polymerase ribozyme fitness (log ratio)” value was no more than -4.2.

In the case of GGAUCUUCUCGAUCUAACAAAAAAGACAAAUCUGCCACAAAGCUUGAGAGCUUCUUCGGAUGCAGAGGCGGCAGCCUUCGGUGGCGCGAUAGCGCCAACGUUCUCAACUAUGACACGUAAAACGCGUGCUCCGUUGAAUGGAGUUUAUCAUG, the “polymerase ribozyme fitness (log ratio)” value is -1.14.

With GGAUCUUCUCGAUCUAACAAAAAAGACAAAUCUGCCACAAAGCUUGAGAGCUUCUUCUGAUGCAGAGGCGGCAGCCUUCGGUGGCGCGACAGCGCCAACGUUCUCAACUAUGACACGUAAAACGCCUGCUCCGUUGACUGGAGUUUAUCAUG, the “polymerase ribozyme fitness (log ratio)” value is no more than -4.2.

On to GGAUCUUCUCGAUCUAACAAAAAAGACAAAUCUGCCACAAAGCUUGAGAGCUUCUUCGGAUGCAGAGGCGGCAGCCUUCGGUGGUGCGAUAGCGCCAACGUUCUCAACUAUGACACGCAAAACGCGUGCUCCGUUGAAUGGAGUUUAUCAUG, for which the “polymerase ribozyme fitness (log ratio)” value was -1.59.

For the variant GGAUCUUCUCGAUCUAACAAAAAAGACAAAUCUGCCACAAAGCUUGAGAGCUUCUUCGGAUGCAGAGGCGGCAGCCUUCGGUGGCGCGAUAGCGCCAACGUUCUUAACUAUGACACGCAAAACGCGUGCUCCGUUGAAUGGAGUUUAUCAUG, the “polymerase ribozyme fitness (log ratio)” value was -1.7.

On to GGAUCUUCUCGAUCUAACAAAAAAGACAAAUCUGCCACAAAGCUUGAGAGCUUCUUCGGAUGCAGAGGCGGCAGCCUUCGUUGGCGCGAUAGCGCUAACGUUCUCAACUAUGAAACGCAAAACGCGUGCUCCGUUGAAUGGUGUUUAUCAUG, for which the “polymerase ribozyme fitness (log ratio)” value was -3.93.

As to GGAUCUUCUCGAUCUAACAAAAAAGACAAAUCUGCCACAAAGCUUGAGAGCUUCUUCGGAUGCAGAGGCGGCAGCCUUCGGUGGCGCGAUAGAGCCAACGUUCUCAACCAGGACACGCAAAACGCGUGCUCCGUUGAAUCGAGUUUAUCAUA, the “polymerase ribozyme fitness (log ratio)” value is no more than -4.2.

As for GGAUCUUCUCGAUCUAACAAAAAAGACAAAUCUGCCACAAAGCUUGAGAGCUACUUCUGAUGCAGAGGCGGCAGCCUUCGGUGGCGCGAUAGCGCCAACGUUCUCAACUAUGACACGCAAAACGCGUGCUCCGUUGAAUGGAGUUUAUCAUG, the “polymerase ribozyme fitness (log ratio)” value is -0.762.

Consider GGAUCUUCUCGAUCUAACAAAAAAGACAAAUCUGCCACAAAGCUUGAGAGCUUCUUCGGAUGCAGAGGCGGCAGCCUUCGGUGGCCCAAUAGCGCCAACGUUCUAAACUAUGACACGCAAAACGCGUGCUCCGUUGAAUGUAGUUUAUCAUG, for which the “polymerase ribozyme fitness (log ratio)” value is no more than -4.2.

For the variant GGAUCUUCUCGAUCUAACAAAAAAGACAAAUCUGCCACAAAGCUUGAGAGCUUCUUCGCAUGCAGAGGCGGCAGCCUUCGGUGGCGCGAUAGCGCCAACGGUCUCAACUAUGACACGCAAAUCGCGUGCUCCGUUGAAUGGAGCUUAUCAUG, the “polymerase ribozyme fitness (log ratio)” value was -2.67.

Take GGAUCUUCUCGAUCUAACAAAAAAGACAAAUCUGCCACAAAGCUUGAGAGCUUCUUCGGAUGCAGAGGCGGCAGCCUUCGGUGUCGCGAUAGCGCCAACGUUCUCAACUAUGACACGCAAAACGCGUGCUCCGUUGAAUGGAGUUUAUCAUG: the “polymerase ribozyme fitness (log ratio)” value is -2.48.
